For assay [1], the system named is Rac1 association with Dvl2. The assay is described as follows: Co-IP of Rac1 with Dvl2 in primary myoblasts. In kind it is cell-based, mouse. As to conditions: Wnt7a stimulated (infected) primary myoblasts vs EV. The text has this: Wnt7a signaling in satellite cells involves Rac1. Polarized peripheral Fzd7-tdTomato colocalized with GFP-Rac1 in C2C12 cells (FIG. 3A). It was hypothesized that the small GTPase Rac1 might also be involved in Wnt7a mediated cell polarization and migration. […] Various forms of Wnt signaling require Disheveled (Dvl) proteins.
For co-immunoprecipitation (CoIP) experiments and the Rac1 activation assay, satellite cell-derived primary myoblasts were infected with retroviruses generated from empty pHAN or from pHAN-Wnt7a-HA (Kuroda et al., 2013). Dvl2 knockdown was performed with an ON-TARGETplus siRNA SMARTpool (L-040921-01, Thermo Fisher Scientific) (Wu et al., 2008) using Lipofectamine RNAiMAX (Life Technologies) according to the manufacturer's instructions. As a control for the knockdown, a non-silencing siRNA SMARTpool was used (D-001810-10, Thermo Fisher Scientific). Cell extracts were obtained through RIPA buffer lysis in the presence of a protease inhibitor cocktail (Nacalai). For CoIP of Rac1 with Dvl2, rabbit anti-Dvl2 antibody was coupled to Protein A Dynabeads (Life Technologies). Denaturing SDS-PAGE was performed using standard techniques. Rac1 activation assay was performed according to the manufacturer's instructions (Pierce).

Assay [2] deals with tibialis anterior (TA) muscle. In words: In vivo myoblast dispersal assay, tdTomato myoblasts into TA of C57BL/6 mice. On the set-up: species or system mouse. As to conditions: myoblasts treated 3 h, transplanted into TA of immunosuppressed C57BL/6 mice; 7 days; vs Veh. As for the experimental part: The duration of effects on cell migration were tested by loading intracellular stores with Wnt7a. tdTomato-expressing primary myoblasts, derived from tamoxifen treated Pax7-CreER; R26R-tdTomato mice (Yin et al., 2013a) were exposed to Wnt7a for 3 h; then the cells were washed and transplanted into the tibialis anterior (TA) muscle of immunosuppressed C57BL/6 mice (FIG. 5A). The myoblasts were co-injected with fluorescent microspheres to identify the injection site in subsequent analyses. 7 days later the mice were sacrificed and the behavior of the transplanted cells in the tissue was analyzed by scoring the number of tdTomato-expressing myofibers that were generated by fusion events with the donor cells. Transplantation of zsGreen-expressing satellite cells or myoblasts into mdx mice was performed as previously described (Bentzinger et al., 2013c). Before transplantation the cells were treated for 3 h with Wnt7a, Wnt5a, or Wnt3a (R&D Systems) at a concentration of 50 ng/mL for freshly isolated satellite cells or with 100 ng/mL for cultured cells. Myoblasts expressing tdTomato were transplanted into uninjured muscles of C57BL/6 mice that were implanted with an osmotic pump (Alzet) delivering FK506 (Sigma) at 2.5 mg/kg/day 3 days prior to the transplantations. […]

For another assay, the system named is Fzd7. The assay is described as follows: Subcellular distribution of Fzd7-YFP in primary myoblasts. Type of assay: cell-based. As to conditions: Wnt7a stimulated vs controls. Here is the method:
The effect of Wnt7a treatment on the subcellular distribution of Fzd7 was tested. […] Furthermore, it was observed that myoblasts exposed to conditioned medium containing HA epitope tagged Wnt7a (Wnt7a-HA) quickly endocytosed this factor. After 3 h of incubation and several subsequent washing steps, endocytosed Wnt7a-HA was detectable for ≧72 h in intracellular structures in primary myoblasts (FIG. 4E) and C2C12 cells (FIG. 11E).

For another assay, the system named is mdx mice. The assay is described as follows: Transplantation of Wnt-treated mouse primary myoblasts into mdx mice. Type of assay: in vivo. As to conditions: 100,000 mouse primary myoblasts. As for the experimental part:
In a clinical setting, freshly isolated satellite cells are often not readily available. Therefore, the effect of 3 h Wnt7a loading on cultured primary mouse myoblasts that were subsequently transplanted into injured muscles of immunosuppressed mdx mice (FIG. S5 A) was examined. After transplantation of 100,000 cells, the number of dystrophin-expressing myofibers was increased by 72% in muscles that were injected with Wnt7a treated myoblasts (FIG. 13B). […] In addition, the mean maximal cluster distance (dispersion) increased from 1.5 mm for Veh., to 2.0 mm for Wnt7a (FIG. 13D).
Transplantation of zsGreen-expressing satellite cells or myoblasts into mdx mice was performed as previously described (Bentzinger et al., 2013c). Before transplantation the cells were treated for 3 h with Wnt7a, Wnt5a, or Wnt3a (R&D Systems) at a concentration of 50 ng/mL for freshly isolated satellite cells or with 100 ng/mL for cultured cells. Myoblasts expressing tdTomato were transplanted into uninjured muscles of C57BL/6 mice that were implanted with an osmotic pump (Alzet) delivering FK506 (Sigma) at 2.5 mg/kg/day 3 days prior to the transplantations. In some experiments, the injection site was marked with blue fluorescent microspheres (2 μm, Life Technologies) that were added at a concentration of 1:100 (vol/vol) to the cell suspension. 10 μl of the cell-microsphere suspension was injected into the TA of each mouse using a Hamilton syringe.
Muscles frozen in liquid nitrogen were cut into 12 μm cross-sections. Cross-sections and cells were either fixed with ethanol (100%) or 2% PFA for 5 min, permeabilized with 0.1% Triton/0.1 M glycine/PBS for 10 min, blocked with 5% horse serum in PBS for several hours, and incubated with specific primary antibody in blocking buffer overnight at 4° C. Samples were subsequently washed with PBS and stained with appropriate fluorescently labeled secondary antibodies for 1 h at room temperature. After washing with PBS, samples were mounted with Permafluor (Fisher). Antibodies were as follows: chicken anti-GFP (Abcam, ab13970), mouse anti-Pax7 (DSHB), mouse anti-Dystrophin (7A10, DSHB), mouse anti-Rac1 (05-389, Millipore), mouse anti-Tubulin (Sigma, T9026), rabbit anti-Dvl2 (3224, Cell Signaling), rabbit anti-zsGreen (Clontech, 632474), rabbit anti-Laminin (Sigma, L9393), rabbit anti-HA (Millipore, 07-221).

“Also recorded” adds a separate entry of the source.

B1: Wnt7a: non-canonical Wnt polypeptide (R&D Systems) used to treat or load myogenic cells (protein, UniProt O00755 32-349, looked up)
Protein Wnt-7a: LGASIICNKIPGLAPRQRAICQSRPDAIIVIGEGSQMGLDECQFQFRNGRWNCSALGERTVFGKELKVGSREAAFTYAIIAAGVAHAITAACTQGNLSDCGCDKEKQGQYHRDEGWKWGGCSADIRYGIGFAKVFVDAREIKQNARTLMNLHNNEAGRKILEENMKLECKCHGVSGSCTTKTCWTTLPQFRELGYVLKDKYNEAVHVEPVRASRNKRPTFLKIKKPLSYRKPMDTDLVYIEKSPNYCEEDPVTGSVGTQGRACNKTAPQASGCDLMCCGRGYNTHQYARVWQCNCKFHWCCYVKCNTCSERTEMYTCK
As to B1, in assay [1], the “Rac1 association with Dvl2” value is on record as “increased Rac1 association with Dvl2”. In assay [2], the “increase in number of tdTomato-expressing myofibers” value is 119%. In addition, in the assay on Fzd7, the “subcellular distribution of Fzd7-YFP” value was “decreases the abundance of peripheral Fzd7-YFP; also recorded: higher abundance of large intracellular aggregates and reduced peripheral Fzd7-YFP”. Further, in the assay with mdx mice (3 h loading (100 ng/mL), immunosuppressed mdx mice), the “increase in number of dystrophin-expressing myofibers” value was 72%. Moreover, in the assay on mdx mice (3 h loading, mdx mice), the “hypertrophy of dystrophin-expressing myofibers” value came to 87% and the “mean maximal cluster distance (dispersion)” value is 2.0 mm.

These data come from patent US20170087188A1, “WNT INDUCED MOTILITY AND ENHANCED ENGRAFTMENT OF CELLS” (OTTAWA HOSPITAL RESEARCH INSTITUTE, priority 2014, published 2017).
